This is an account of results in FireProtDB (doi:10.1021/bi982078m).

For this series the following is noted: Aspergillus oryzae (strain ATCC 42149 / RIB 40), pH 3, 25 °C, Absorbance, glycine-HCl 0.05 M, reversible: yes, whole UniProt chain shown.

B1: Guanyl-specific ribonuclease T1 wild type, P00651 (protein)
chain: MMYSKLLTLTTLLLPTALALPSLVERACDYTCGSNCYSSSDVSTAQAAGYQLHEDGETVGSNSYPHKYNNYEGFDFSVSSPYYEWPILSSGDVYSGGSPGADRVVFNENNQLAGVITHTGASGNNFVECT
B1: the denaturant m value came to 2.83 kcal/mol/M (GdnHCl, KCl 0.1-1.0 M); 1.98 kcal/mol/M (Urea, KCl 0.10 M); 1.71 kcal/mol/M (Urea, KCl 0.50 M); 1.59 kcal/mol/M (Urea, KCl 1.00 M); 1.65 kcal/mol/M (Urea, KCl 1.25 M); 1.54 kcal/mol/M (Urea, KCl 1.50 M). Besides, the “denaturant midpoint (higher = more stable)” value runs as follows: (GdnHCl, KCl 0.1-1.0 M) 1.78 M; (Urea, KCl 0.10 M) 2.05 M; (Urea, KCl 0.50 M) 2.4 M; (Urea, KCl 1.00 M) 2.82 M; (Urea, KCl 1.25 M) 3.02 M; (Urea, KCl 1.50 M) 3.41 M. Also, the unfolding free energy (GdnHCl, KCl 0.1-1.0 M) turned out to be 5.03 kcal/mol; the unfolding free energy (Urea, KCl 0.10 M) is 4.07 kcal/mol; the unfolding free energy (Urea, KCl 0.50 M) was 4.1 kcal/mol; the unfolding free energy (Urea, KCl 1.00 M) was 4.49 kcal/mol; the unfolding free energy (Urea, KCl 1.25 M) is 4.99 kcal/mol; the unfolding free energy (Urea, KCl 1.50 M) turned out to be 5.26 kcal/mol.
